Target: T1, wild-type soluble E2 (sE2), HCV isolate H77C, residues 384-661 (UniProt P27958 384-661)
T1 chain: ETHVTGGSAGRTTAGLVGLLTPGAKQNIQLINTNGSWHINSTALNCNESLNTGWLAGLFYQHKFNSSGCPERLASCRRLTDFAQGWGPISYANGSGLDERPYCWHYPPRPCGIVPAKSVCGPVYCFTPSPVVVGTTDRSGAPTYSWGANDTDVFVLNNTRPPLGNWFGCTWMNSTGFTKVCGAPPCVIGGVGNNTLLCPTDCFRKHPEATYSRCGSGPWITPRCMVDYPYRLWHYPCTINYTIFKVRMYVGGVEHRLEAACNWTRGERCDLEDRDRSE
Experiment: BLI

B1: CD81 large extracellular loop (LEL) (receptor)
chain: FVNKDQIAKDVKQFYDQALQQAVVDDDANNAKAVVKTFHETLDCCGSSTLTALTTSVLKNNLCPSGSNIISNLFKEDCHQKIDDLFSGK
Binder B1 has a Kd of 22 nM.
